Laboratory results: PMC13624870

What was measured:
amyloid-β 40 (Aβ40) [1] = molecular target: amyloid-β 40 (Aβ40)
[2] = molecular target: uniformly 15N-labeled Aβ40; assay: NMR titration; 2D 1H–15N SOFAST–HMQC of 20 µM 15N-labeled Aβ40 with 200 µM ZF2–4 or ZFx′; 20 mM HEPES, pH 7.4, 1 mM DTT, 10% v/v D2O; 10°C
[3] = molecular target: fluorophore-conjugated Aβ40 (HF488Aβ40); assay: other fluorescence titration; fluorescence quenching of fluorophore-conjugated Aβ40 (HF488Aβ40) by ZF2–4; conditions in Figure S9
amyloid-β 40 (Aβ40) [4] = assay: ITC; ZF2–4 (300 µM) titrated into monomeric Aβ40 (20 µM); one-set-of-sites model; 20 mM HEPES, pH 7.4, 1 mM DTT; 10°C; heat of dilution of ZF2–4 subtracted

Substance “ZF2–4 (tandem array of three Cys2His2-type zinc finger modules of PARIS) (domain or fragment)” has a decrease in the size of Aβ40 liquid droplets (LLPS, confocal microscopy) with equimolar ZF2–4 (100 µM each) relative to Aβ40 alone (amyloid-β 40 (Aβ40) [1]) of 93.7%, an average decrease in NMR signal intensity of 15N-labeled Aβ40 [2] of 41.9% and a Kd [3] of 0.32 µM. It also gave a stoichiometry N (Aβ40 per ZF2–4) [3] of 1.5, a Kd (amyloid-β 40 (Aβ40) [4]) of 1.96 µM and a dH (amyloid-β 40 (Aβ40) [4]) of -1.31 kcal/mol. For the same substance, the stoichiometry N (Aβ40 per ZF2–4) (amyloid-β 40 (Aβ40) [4]) was 1.7.
